Reference: patent USRE50282
*1 amine or outer side, *2 acyl side, *3 side chain or, on linkers, in order; H or OH if unused. Bridges are numbered along the chain shown (N, C = ends). Primed or numbered codes have the meaning given here. The star is where a group is joined. Biotin = O=C1N[C@H]2[C@H](CS[C@H]2CCCCC(=O)*)N1; Glutaryl = O=C(CCCC(=O)[*:2])[*:1]; HOOC(CH2)6CO = O=C(O)CCCCCCC(=O)*; PEG4′ = not defined here

target: human IgG (Chugai Pharmaceutical Co., Ltd.) (human); assay: SPR (BIAcore T200), IgG immobilised

fold decrease in affinity against Type I [times]	Binder
10	{Biotin-PEG4′}-GDDCAYHKGELVWCTFH-NH2 (disulfide 4-14 (inferred)) [Type I(R8K) IgG-binding peptide, …-NH2]

target: human IgG (Chugai Pharmaceutical Co., Ltd.) (human); assay: SPR (BIAcore T200), IgG immobilised; 1:1 binding fit

Kd [nM]	Binder
9.1	{Biotin-PEG4′}-GPDCAYHRGELVWCTFH-NH2 (disulfide 4-14 (inferred)) [Type I IgG-binding peptide, …-NH2]
365	{Biotin-PEG4′}-GDDCAYHK(HOOC(CH2)6CO)GELVWCTFH-NH2 (disulfide 4-14 (inferred)) [Type I(R8K)-DSS-OH, GDDCAYHK(DSS-OH)…-NH2]
315	{Biotin-PEG4′}-GDDCAYHK(Glutaryl)GELVWCTFH-NH2 (disulfide 4-14 (inferred)) [Type I(R8K)-DSG-OH, GDDCAYHK(DSG-OH)…-NH2]
156	{Biotin-PEG4′}-GDDCAYHKGELVWCTFH-NH2 (disulfide 4-14 (inferred)) [Type I(R8K) IgG-binding peptide, …-NH2]

target: human IgG (Chugai Pharmaceutical Co., Ltd.) (human); assay: SPR (BIAcore T200), IgG immobilised; equilibrium value

Kd [nM]	Binder
10	{Biotin-PEG4′}-GPDCAYHRGELVWCTFH-NH2 (disulfide 4-14 (inferred)) [Type I IgG-binding peptide, …-NH2]
389	{Biotin-PEG4′}-GDDCAYHK(HOOC(CH2)6CO)GELVWCTFH-NH2 (disulfide 4-14 (inferred)) [Type I(R8K)-DSS-OH, GDDCAYHK(DSS-OH)…-NH2]
330	{Biotin-PEG4′}-GDDCAYHK(Glutaryl)GELVWCTFH-NH2 (disulfide 4-14 (inferred)) [Type I(R8K)-DSG-OH, GDDCAYHK(DSG-OH)…-NH2]
131	{Biotin-PEG4′}-GDDCAYHKGELVWCTFH-NH2 (disulfide 4-14 (inferred)) [Type I(R8K) IgG-binding peptide, …-NH2]
